Experimental data taken from the supplement of paper PMC10567573.

B1: GLTSCR2 (parent)
chain: LARRRRRRQARREAEADKPRRLGR

Variants of: B1
Experiment: protein stability index of a GFP-peptide fusion (GPS, HEK-293T) (PSI 1-6); higher = more stable
Details: c terminus: a fixed tail appended
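Also: lentivirally expressed fusions sorted by FACS into six bins by GFP to DsRed ratio, PSI derived from sequencing read proportions per bin multiplied by bin number.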

Row | Variant | protein stability index
1 | LARRRRRRQARREAEADKLRRLGR [P19L] | 3.91
2 | LARRRRRRQARREAEADKMRRLGR [P19M] | 4.08
3 | LARRRRRRQARREAEADKNRRLGR [P19N] | 4.58
4 | LARRRRRRQARREAEADKQRRLGR [P19Q] | 4.19
5 | LARRRRRRQARREAEADKRRRLGR [P19R] | 4.54
6 | LARRRRRRQARREAEADKSRRLGR [P19S] | 4.16
7 | LARRRRRRQARREAEADKTRRLGR [P19T] | 4.39
8 | LARRRRRRQARREAEADKVRRLGR [P19V] | 4.08
9 | LARRRRRRQARREAEADKWRRLGR [P19W] | 3.92
10 | LARRRRRRQARREAEADKYRRLGR [P19Y] | 4.26
11 | LARRRRRRQARREAEADKPARLGR [R20A] | 4.25
12 | LARRRRRRQARREAEADKPCRLGR [R20C] | 4.45
13 | LARRRRRRQARREAEADKPDRLGR [R20D] | 4.11
14 | LARRRRRRQARREAEADKPERLGR [R20E] | 4.52
15 | LARRRRRRQARREAEADKPFRLGR [R20F] | 4.04
16 | LARRRRRRQARREAEADKPGRLGR [R20G] | 4.91
17 | LARRRRRRQARREAEADKPHRLGR [R20H] | 5.18
18 | LARRRRRRQARREAEADKPIRLGR [R20I] | 4.36
19 | LARRRRRRQARREAEADKPKRLGR [R20K] | 4.64
20 | LARRRRRRQARREAEADKPLRLGR [R20L] | 4.64
21 | LARRRRRRQARREAEADKPMRLGR [R20M] | 4.38
22 | LARRRRRRQARREAEADKPNRLGR [R20N] | 4.75
23 | LARRRRRRQARREAEADKPPRLGR [R20P] | 5.45
24 | LARRRRRRQARREAEADKPQRLGR [R20Q] | 4.6

Row | Variant | protein stability index
25 | LARRRRRRQARREAEADKPSRLGR [R20S] | 5.26
26 | LARRRRRRQARREAEADKPTRLGR [R20T] | 4.82
27 | LARRRRRRQARREAEADKPVRLGR [R20V] | 4.65
28 | LARRRRRRQARREAEADKPWRLGR [R20W] | 4.41
29 | LARRRRRRQARREAEADKPYRLGR [R20Y] | 4.61
30 | LARRRRRRQARREAEADKPRALGR [R21A] | 5.06
31 | LARRRRRRQARREAEADKPRCLGR [R21C] | 4.84
32 | LARRRRRRQARREAEADKPRDLGR [R21D] | 4.65
33 | LARRRRRRQARREAEADKPRELGR [R21E] | 4.8
34 | LARRRRRRQARREAEADKPRFLGR [R21F] | 4.58
35 | LARRRRRRQARREAEADKPRGLGR [R21G] | 4.39
36 | LARRRRRRQARREAEADKPRHLGR [R21H] | 3.99
37 | LARRRRRRQARREAEADKPRILGR [R21I] | 3.94
38 | LARRRRRRQARREAEADKPRKLGR [R21K] | 4.44
39 | LARRRRRRQARREAEADKPRLLGR [R21L] | 4.36
40 | LARRRRRRQARREAEADKPRMLGR [R21M] | 4.52
41 | LARRRRRRQARREAEADKPRNLGR [R21N] | 4.73
42 | LARRRRRRQARREAEADKPRPLGR [R21P] | 3.66
43 | LARRRRRRQARREAEADKPRQLGR [R21Q] | 5.13
44 | LARRRRRRQARREAEADKPRSLGR [R21S] | 5.15
45 | LARRRRRRQARREAEADKPRTLGR [R21T] | 4.83
46 | LARRRRRRQARREAEADKPRVLGR [R21V] | 4.67
47 | LARRRRRRQARREAEADKPRWLGR [R21W] | 3.64
48 | LARRRRRRQARREAEADKPRYLGR [R21Y] | 4.94

Row | Variant | protein stability index
49 | LARRRRRRQARREAEADKPRRAGR [L22A] | 4.74
50 | LARRRRRRQARREAEADKPRRCGR [L22C] | 4.53
51 | LARRRRRRQARREAEADKPRRDGR [L22D] | 5.31
52 | LARRRRRRQARREAEADKPRREGR [L22E] | 5.15
53 | LARRRRRRQARREAEADKPRRFGR [L22F] | 3.87
54 | LARRRRRRQARREAEADKPRRGGR [L22G] | 4.3
55 | LARRRRRRQARREAEADKPRRHGR [L22H] | 4.23
56 | LARRRRRRQARREAEADKPRRIGR [L22I] | 4.7
57 | LARRRRRRQARREAEADKPRRKGR [L22K] | 4.71
58 | LARRRRRRQARREAEADKPRRMGR [L22M] | 4.74
59 | LARRRRRRQARREAEADKPRRNGR [L22N] | 4.62
60 | LARRRRRRQARREAEADKPRRPGR [L22P] | 4.15
61 | LARRRRRRQARREAEADKPRRQGR [L22Q] | 4.87
62 | LARRRRRRQARREAEADKPRRRGR [L22R] | 5.04
63 | LARRRRRRQARREAEADKPRRSGR [L22S] | 5.13
64 | LARRRRRRQARREAEADKPRRTGR [L22T] | 4.74
65 | LARRRRRRQARREAEADKPRRVGR [L22V] | 5.4
66 | LARRRRRRQARREAEADKPRRWGR [L22W] | 4.62
67 | LARRRRRRQARREAEADKPRRYGR [L22Y] | 4.35
68 | LARRRRRRQARREAEADKPRRLAR [G23A] | 4.34
69 | LARRRRRRQARREAEADKPRRLCR [G23C] | 4.57
70 | LARRRRRRQARREAEADKPRRLDR [G23D] | 4.9
71 | LARRRRRRQARREAEADKPRRLER [G23E] | 4.68
72 | LARRRRRRQARREAEADKPRRLFR [G23F] | 4.44

Row | Variant | protein stability index
73 | LARRRRRRQARREAEADKPRRLHR [G23H] | 4.79
74 | LARRRRRRQARREAEADKPRRLIR [G23I] | 4.53
75 | LARRRRRRQARREAEADKPRRLKR [G23K] | 3.76
76 | LARRRRRRQARREAEADKPRRLLR [G23L] | 4.18
77 | LARRRRRRQARREAEADKPRRLMR [G23M] | 4.17
78 | LARRRRRRQARREAEADKPRRLNR [G23N] | 4.64
79 | LARRRRRRQARREAEADKPRRLPR [G23P] | 4.77
80 | LARRRRRRQARREAEADKPRRLQR [G23Q] | 4.51
81 | LARRRRRRQARREAEADKPRRLRR [G23R] | 4.57
82 | LARRRRRRQARREAEADKPRRLSR [G23S] | 5.18
83 | LARRRRRRQARREAEADKPRRLTR [G23T] | 5.05
84 | LARRRRRRQARREAEADKPRRLVR [G23V] | 4.45
85 | LARRRRRRQARREAEADKPRRLWR [G23W] | 4.46
86 | LARRRRRRQARREAEADKPRRLYR [G23Y] | 4.44
87 | LARRRRRRQARREAEADKPRRLGA [R24A] | 4.72
88 | LARRRRRRQARREAEADKPRRLGC [R24C] | 4.44
89 | LARRRRRRQARREAEADKPRRLGD [R24D] | 5.02
90 | LARRRRRRQARREAEADKPRRLGE [R24E] | 4.12
91 | LARRRRRRQARREAEADKPRRLGF [R24F] | 4.3
92 | LARRRRRRQARREAEADKPRRLGG [R24G] | 4.79
93 | LARRRRRRQARREAEADKPRRLGH [R24H] | 4.8
94 | LARRRRRRQARREAEADKPRRLGI [R24I] | 4.47
